Data on 1 substance can be found in publication PMC2574963.

This test deals with Heat shock protein 90α (human) (UniProt P07900). The test is described as follows: pull-down.

“Recombinant human Hsp70 (from UniProt P0DMV8 1-641) (natural protein)” registered a percent eluted, Hsp70 alone without m3 (control beads' nonadsorbed = 100%) of 18% and a percent nonadsorbed, Hsp70 alone without m3 (control beads' nonadsorbed = 100%) of 70%.
